Residue numbers refer to the chain shown, from its start. Names and notes keep the numbering of the source.
B1: HsCNNM4 extracellular domain A149S (Jalili syndrome mutation) (domain or fragment, human, UniProt Q6P4Q7 44-175, looked up)
chain: GTIVGMRLASCNKSCGTNPDGIIFVSEGSTVNLRLYGYSLGNISSNLISFTEVDDAETLHKSTSCLELTKDLVVQQLVNVSRGNTSGVLVVLTKFLRRSESMKLYSLCTRAQPDGPWLKWTDKDSLLFMVEE
B2: HsCNNM4 extracellular domain (residues 44–175), wild type (domain or fragment, human, UniProt Q6P4Q7 44-175, looked up)
chain: B1 chain with S106A
B3: HsCNNM4 extracellular domain N85D (Jalili syndrome mutation) (domain or fragment, human, UniProt Q6P4Q7 44-175, looked up)
chain: B1 chain with N42D, S106A
B4: HsCNNM4 extracellular domain E95Q (Jalili syndrome mutation) (domain or fragment, human, UniProt Q6P4Q7 44-175, looked up)
chain: B1 chain with E52Q, S106A
B5: HsCNNM4 extracellular domain (residues 44–175) R50A (domain or fragment, human, UniProt Q6P4Q7 44-175, looked up)
chain: B1 chain with R7A, S106A
B6: HsCNNM4 extracellular domain M145T (Jalili syndrome mutation) (domain or fragment, human, UniProt Q6P4Q7 44-175, looked up)
chain: B1 chain with M102T, S106A

Columns and labels:
[1] = target: EgCNNM4 extracellular domain (residues 25–153), wild type (Echinococcus granulosus); test: AUC
AUC = target: the molecule itself; test: AUC

Row | Molecule | stoichiometry N [1] | stoichiometry N (AUC)
1 | EgCNNM4 extracellular domain (residues 25–153), wild type (domain or fragment) | 2 | –
2 | B1 | – | 2
3 | B2 | – | 2
4 | B3 | – | 2
5 | B4 | – | 2
6 | B5 | – | 2
7 | B6 | – | 2

Reference: PMC10804811 (Protein Science : A Publication of the Protein Society, 2024)
